Sequences and labels used below:
T1: mouse AQP3 on the cell surface (PAM212 cells, mouse macrophage cells, HEK293 cells stably overexpressing … (mouse, UniProt Q8R2N1 1-292))
T1 construct: whole, on cells; Membrane water channel; also called mouse aquaporin 3
T1 sequence (looked up): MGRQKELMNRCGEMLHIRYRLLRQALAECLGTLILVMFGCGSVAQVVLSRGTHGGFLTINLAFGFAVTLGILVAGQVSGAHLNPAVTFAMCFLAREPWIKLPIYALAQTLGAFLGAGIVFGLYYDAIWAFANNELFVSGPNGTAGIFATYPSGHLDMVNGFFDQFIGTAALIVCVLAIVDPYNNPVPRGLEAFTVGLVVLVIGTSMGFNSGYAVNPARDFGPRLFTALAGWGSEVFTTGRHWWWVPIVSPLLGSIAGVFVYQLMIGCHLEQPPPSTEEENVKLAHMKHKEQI

T2: peptide used for immunization (SEQ ID NO:1), ATYPSGHLDM (human and mouse (identical sequence))
T2 construct: Synthetic peptide; also called immunogen peptide; synthetic peptide
T2 peptide: ATYPSGHLDM

T3: mouse AQP3 in cell lysate of HEK293T cells overexpressing mouse AQP3 and a myc-biotinylated tag (mouse, UniProt Q8R2N1 1-292, biotinylated tag (site not given))
T3 construct: also called AQP3 (cell lysate); not shown: myc-biotinylated tag
T3 sequence (looked up): T1 sequence (looked up)

T4: human AQP3 on the cell surface (HaCaT cells, A431 cells, HEK293 cells stably overexpressing human AQP3) (human, UniProt Q92482 1-292)
T4 construct: whole, on cells; Membrane water channel; also called human aquaporin 3
T4 sequence (looked up): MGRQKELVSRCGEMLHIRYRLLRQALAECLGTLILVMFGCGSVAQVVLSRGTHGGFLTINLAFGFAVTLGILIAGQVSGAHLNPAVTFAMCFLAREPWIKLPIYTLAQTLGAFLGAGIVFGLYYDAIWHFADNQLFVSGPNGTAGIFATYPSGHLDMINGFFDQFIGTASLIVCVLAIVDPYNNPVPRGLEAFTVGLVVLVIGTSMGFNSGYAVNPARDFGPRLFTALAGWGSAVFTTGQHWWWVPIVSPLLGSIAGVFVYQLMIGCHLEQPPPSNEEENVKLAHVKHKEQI

B1: antibody J (antibody, mouse IgG2a, kappa, V domains shown)
VH: QVHLQQSGTELVKPGASVKLSCEASGYTFTSYWMHWVKQRPGQGLEWIGNINPSNGGTNYNEKFKSKATLTVDKSSSTAYMQLSSLTSEDSAVYYCARGGIYYGNYDYYAMDYWGQGTSVTVSS
VL: DIVMTQAAPSVPVTPGESVSISCRSSKSLLHSNGNTYLYWFLQRPGQSPQLLIYRVSNLASGVPDRFSGSGSGTAFTLRISRVEAEDVGVYYCMQHLEYPFTFGGGTKLEIKR
notes: also called anti AQP3 mAb J; Ab
B2: antibody E (antibody, mouse IgG2a, kappa, V domains shown)
VH: EVKLLESGAELVRPGASVTLSCKASGYTFTDYEMHWVKQTPVHGLEWIGGIDPESGGTGYNQKFKGKAILTADKSSSTAYMELRSLTSEDSAVYFCTRSGYYGSPLLDYWGQGTTLTVSS
VL: QIVLSQSPAIMSASLGERVTMTCTASSSVSSSYLHWYQQKPGSSPKLWIYSTSNLASGVPARFSGSGSGTSYSLTISSMEAEDAATYYCHQYHRSPPTFGAGTKLEIKR
notes: also called anti AQP3 mAb E
B3: antibody K (antibody, mouse IgG2a, kappa, V domains shown)
VH: QVQLKQSGAELVRPGTSVKVSCKASGYAFTNYLIEWVKQRPGQGLEWIGVINPGSGGTNYNEKFKGKATLTADKSSSTAYMQLSSLTSEDSAVYFCARWGFYYAMDYWGQGTSVTVSS
VL: DIVMTQSPSSLSASLGERVSLTCRASQEISGYLSWLQQKPDGTIKRLIYAASTLDSGVPKRFSGSRSGSDYSLTISSLESEDFADYYCLQYASYPLTFGAGTKLEIKR
notes: also called anti AQP3 mAb K
B4: antibody G (antibody, mouse IgG2a, kappa, V domains shown)
VH: QVQLKQSGAELVRPGASVTLSCKASGYTFTDYEMHWVKQTPVHGLEWIGGIDPETGGTAYNQKFKGKAILTADKSSSTAYMELRSLTSEDSAVYYCTRWGAITSFVALRGFAYWGQGTLVTVSS
VL: DIQMTQSPSSLSVSAGEKVTMSCKSSQSLLNSGNQKNYLAWYQQKPGQPPKLLIYGASTRESGVPDRFTGSGSGTDFTLTISSVQAEDLAVYYCQNDHSYPPTFGAGTKLELKR
notes: also called anti AQP3 mAb G
B5: antibody C (antibody, mouse IgG2a, kappa, V domains shown)
VH: QVQLKQSGAELARPGASVKLSCKASGYNFKSYGISWVKQRTGQGLEWIGEIYPGSGNTYYNEKLKGKATLTADKSSSTAYMELRSLTSEDSAVYFCARTYGYDSFPWFAYWGQGTLVTVSS
VL: B1 VL with V88E, G105A
notes: also called anti AQP3 mAb C
B6: antibody B (antibody, mouse IgG2a, kappa, V domains shown)
VH: EVQLVESGGDLVKPGGSLKLSCAASGFTFSSYGMSWVRQTPDKRLEWVATISRGSIYTYYPDSVKGRFTISRDNAKNTLYLQMSSLKSEDTAMYYCARLSLYDYDGARYTMDYWGQGTSVTVSS
VL: DIVMTQSPKFMSTSVGDRVSITCKASQDVGTAVAWYQQKPGQSPKLLIYWASTRHTGVPDRFTGSGSGTDFTLTISNVQSEDLADYFCQQYSSYHTFGAGTKLELKR
notes: also called anti AQP3 mAb B
B7: antibody H (antibody, mouse IgG2a, kappa, V domains shown)
VH: B6 VH with Q3K, G54R, K65Q
VL: B6 VL with V3K, L105I
notes: also called anti AQP3 mAb H
B8: antibody D (antibody, mouse IgG2a, kappa, V domains shown)
VH: EVQLQQSGAELVRPGASVTLSCKASGYTFTDYEMHWVQQTPVHGLEWIGGIDPETGGTGYNQKFKGKAILTADKSSSTAYMELRSLTSEDSAVYFCTRHGSYAMDYWGQGTSVTVSS
VL: DIVMTQSPKFMSTSVGDRVSITCKASQDVSTAVAWYQQKPGQSPKLLIYWASTRHTGVPDRFTGSGSGTDYTLTISSVQAEDLALYYCQQHYSTPPTFGGGTRLEIKR
notes: also called anti AQP3 mAb D
B9: antibody A (antibody, mouse IgG2a, kappa, V domains shown)
VH: QVQLQQPGAELVRPGASVTLSCKASGYTFTDYEMHWVKQTPVHGLEWIGGVDPETGGTGYNQKFRGKAILTADKSSSTAYMELRSLTSEDSAVYYCARHGGSFYAMDYWGQGTSVTVSS
VL: B8 VL with R103K, I106L
notes: also called anti AQP3 mAb A
B10: antibody F (antibody, mouse IgG2a, kappa, V domains shown)
VH: QVQLKESGPELVKPGASVKISCKASGYTFTDYYINWVKQRPGQGLEWIGWIFPGSGSTYYNEKFKGKATLTVDKSSSTAYMLLSSLTSEDSAVYFCADYGSSYRYFDVWGAGTTVTVSS
VL: DIVMTQSPAILSASPGEKVTMTCRASSSVSYMHWYQQKPGSSPKPWIYATSYLASGVPARFSGSGSGTSYSLTIGRVEAEDAATYYCQQWSSNPLTFGAGTKLELKR
notes: also called anti AQP3 mAb F

Changes are numbered by the printed parent chain.

From patent publication US20210130455A1 (KEIO UNIVERSITY, published 2021) come the findings set out here.

For one test, the target named is T1, mouse AQP3 on the cell surface (PAM212 …). The test can be described thus: fluorescence of a labelled secondary antibody on mouse macrophage cells; antibody at 0.1, 1 and 10 µg/mL. The protocol:
(§1) PAM212 and macrophage cells were reacted with each anti AQP3 antibody (0.1, 1, or 10 μg/mL) at 4° C. for 1 hour. After washing the cells, a fluorescent-labeled anti mouse secondary antibody was added and the reaction was allowed to occur additionally for 1 hour (4° C.). By measuring the fluorescence intensity, the binding property of each anti AQP3 antibody to cells was obtained.
The testing was also carried out using solvent (Veh) or a non-specific IgG (IgG) controls. In FIG. 4, the vertical axis represents fluorescence intensity, and the mean fluorescence intensity of each sample is represented by bar height together with standard error.
Consider B1, for which the binding result was “binds”.

The next test addresses T2, peptide used for immunization (SEQ ID …). Nature of the test: ELISA on the immunogen peptide SEQ ID NO:1. The protocol: Binding of antibodies A, B, C, D, E, F, G, H, J, and K to the peptide used for immunization (SEQ ID NO:1) was tested in an ELISA assay. […] Thus, antibodies A, D, and F may therefore bind to AQP3 at a different epitope.
For the molecule B2, the binding result is reported as “binds”.
Still for that read-out and setting: the entry for B3 is “binds”; for B4 it is “binds”.
The same measure, in the same setting: the entry for B5 is “binds”; for B1 it is “binds”; for B6 it is “binds”.
Same read-out and setting: the entry for B7 is “binds”.

The target in another test is T3, mouse AQP3 in cell lysate of HEK293T …. The test can be described thus: ELISA on lysate of HEK293T cells overexpressing mouse AQP3 and a myc-biotinylated tag. The text has this: Cell lysate from HEK293T cells overexpressing mouse AQP3 and a myc-biotinylated tag was used in an ELISA assay to measure the binding of antibodies A, B, C, D, E, F, G, H, J, and K to AQP3. Cell lysate from HEK293T cells overexpressing the myc-biotinylated tag but not AQP3 was used as control.
For B8, the binding result is reported as “binds”.
Same read-out and setting: with B9 the entry was “binds”; with B2, “binds”.
The same measure, in the same setting: the entry for B3 is “binds”.
Same read-out and setting: with B4 the entry was “binds”; with B10, “binds”; with B5, “binds”.
Turning to B1, the binding result was “binds”.
Still for that read-out and setting: with B6 the entry was “binds”; with B7, “binds”.

Another test concerns the target T1, mouse AQP3 on the cell surface (PAM212 …). Nature of the test: FACS on HEK293 cells stably overexpressing mouse AQP3; antibody at 10 µg/mL. The protocol: A FACS assay was also performed using HEK293 cells stably overexpressing mouse AQP3. Cells were incubated with antibody E, H, J, or negative control IgG at a concentration of 10 μg/mL for one hour and then sorted by FACS. Separately, HEK293 cells stably overexpressing human AQP3 were incubated with antibody E at a concentration of 10 μg/mL for one hour and then sorted by FACS.
Regarding B7, the binding result is listed as “binds”.

For the next test, the target named is T4, human AQP3 on the cell surface (HaCaT …). The test can be described thus: fluorescence of a labelled secondary antibody on HaCaT cells; antibody at 10 µg/mL. The method, then:
as §1
The assay was also performed using HaCaT cells and antibodies A, B, C, D, E, F, G, H, and J at a concentration of 10 μg/mL. Binding of antibodies C, D, E, H, and J to HaCaT cells was statistically significant. The results obtained by performing a FACS assay using HaCaT, which are human epithelial cells, and antibody G, antibody H, or antibody J are shown in FIG. 6A-6C, respectively. HaCaT cells were treated with Cell Dissociation Buffer for 30 minutes at 37° C., and then dislodged and collected. Then, the cells were reacted with 10 μg/mL anti AQP3 antibody at 4° C. for 1 hour. After washing the cells, a fluorescent-labeled anti mouse secondary antibody was added and the reaction was allowed to occur additionally for 1 hour (4° C.). Then, by using a flow cytometer, fluorescence intensity was measured (FIG. 6A to FIG. 6C). FIG. 6A represents the result of a case in which antibody G was used, FIG. 6B represents the result of a case in which antibody H was used, and FIG. 6C represents the result of a case in which antibody J was used. […] The histogram expressed with bold line represents a case in which the anti AQP3 antibody was used while the histogram expressed with thin gray line represents a case as a control in which the anti AQP3 antibody was not used (addition of non-specific IgG). […] Ratio (%) of the cells included in this range (=cells showing positive staining by anti AQP3 antibody) is also shown in the drawing.
Take B8: the binding result is on record as “binds”.
Same read-out and setting: the entry for B2 is “binds”; for B5 it is “binds”; for B1 it is “binds”.
The same measure, in the same setting: with B7 the entry was “binds”.

The target is the same in another test. The test can be described thus: flow cytometry on HaCaT cells; antibody at 10 µg/mL. The protocol:
The assay was also performed using HaCaT cells and antibodies A, B, C, D, E, F, G, H, and J at a concentration of 10 μg/mL. Binding of antibodies C, D, E, H, and J to HaCaT cells was statistically significant. The results obtained by performing a FACS assay using HaCaT, which are human epithelial cells, and antibody G, antibody H, or antibody J are shown in FIG. 6A-6C, respectively. HaCaT cells were treated with Cell Dissociation Buffer for 30 minutes at 37° C., and then dislodged and collected. Then, the cells were reacted with 10 μg/mL anti AQP3 antibody at 4° C. for 1 hour. After washing the cells, a fluorescent-labeled anti mouse secondary antibody was added and the reaction was allowed to occur additionally for 1 hour (4° C.). Then, by using a flow cytometer, fluorescence intensity was measured (FIG. 6A to FIG. 6C). FIG. 6A represents the result of a case in which antibody G was used, FIG. 6B represents the result of a case in which antibody H was used, and FIG. 6C represents the result of a case in which antibody J was used. […] The histogram expressed with bold line represents a case in which the anti AQP3 antibody was used while the histogram expressed with thin gray line represents a case as a control in which the anti AQP3 antibody was not used (addition of non-specific IgG). […]
For B4, the binding result is given as “binds”.

The target in the next test is T1, mouse AQP3 on the cell surface (PAM212 …). The test can be described thus: fluorescence of a labelled secondary antibody on PAM212 cells; antibody at 10 µg/mL. The protocol:
as §1
The assay was also performed using PAM212 cells and antibodies A, B, C, D, E, F, G, H, and J at a concentration of 10 μg/mL. Binding of antibodies C, D, E, G, and J to PAM212 cells was statistically significant.
In the case of B8, the binding result is on record as “binds”.
The same measure, in the same setting: with B2 the entry was “binds”; with B4, “binds”; with B5, “binds”.
